From article PMC11847536 (The Journal of Biological Chemistry, 2025)

Legend:
[1] = target: T1, PRMT5/biotinylated WDR77 complex (UniProt O14744 1-637; Q9BQA1 1-342, biotin (site not stated)); experiment: FRET or BRET; TR-FRET equilibrium binding: adaptors labeled by BODIPY-maleimide titrated into PRMT5/biotinylated WDR77 incubated with terbium-coupled streptavidin; details: both partners purified
T1 construct: PRMT5 (protein arginine methyltransferase 5); Held by terbium-coupled streptavidin in the TR-FRET assay; copies: 4 + 4

[2] = target: T1, PRMT5/biotinylated WDR77 complex; experiment: FRET or BRET; TR-FRET displacement: unlabeled pICln, RIOK1 and ΔPBM constructs titrated to displace BODIPY-labeled pICln tracer from PRMT5/WDR77; details: both partners purified

T1 sequence (O14744 whole entry, chain 1 of 2): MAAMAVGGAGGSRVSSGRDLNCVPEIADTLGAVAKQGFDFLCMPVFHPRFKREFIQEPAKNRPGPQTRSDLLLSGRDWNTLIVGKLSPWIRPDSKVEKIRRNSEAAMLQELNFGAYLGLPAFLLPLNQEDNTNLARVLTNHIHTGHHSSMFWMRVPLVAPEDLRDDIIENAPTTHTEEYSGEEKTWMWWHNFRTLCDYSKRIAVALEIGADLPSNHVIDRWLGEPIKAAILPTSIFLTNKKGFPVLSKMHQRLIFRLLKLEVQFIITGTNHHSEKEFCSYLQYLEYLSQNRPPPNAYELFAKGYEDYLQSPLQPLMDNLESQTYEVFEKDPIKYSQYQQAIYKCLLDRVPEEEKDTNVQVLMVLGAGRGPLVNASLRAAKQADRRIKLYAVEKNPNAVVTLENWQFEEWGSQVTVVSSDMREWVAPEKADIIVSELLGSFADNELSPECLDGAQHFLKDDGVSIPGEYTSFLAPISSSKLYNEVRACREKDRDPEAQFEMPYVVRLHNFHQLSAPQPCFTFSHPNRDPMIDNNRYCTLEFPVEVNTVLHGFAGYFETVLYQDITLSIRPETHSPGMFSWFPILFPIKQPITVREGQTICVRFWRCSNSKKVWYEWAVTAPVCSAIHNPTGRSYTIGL
T1 sequence (Q9BQA1 whole entry, chain 2 of 2): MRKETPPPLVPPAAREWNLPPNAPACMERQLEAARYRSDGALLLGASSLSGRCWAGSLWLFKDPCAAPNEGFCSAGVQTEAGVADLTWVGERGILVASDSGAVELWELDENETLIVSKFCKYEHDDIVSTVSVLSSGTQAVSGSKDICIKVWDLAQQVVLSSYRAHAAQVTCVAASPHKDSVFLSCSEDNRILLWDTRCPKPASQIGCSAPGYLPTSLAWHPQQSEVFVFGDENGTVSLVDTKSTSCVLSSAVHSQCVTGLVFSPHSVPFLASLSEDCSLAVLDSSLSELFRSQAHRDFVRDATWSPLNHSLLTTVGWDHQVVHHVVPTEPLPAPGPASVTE

Binder	Kd [1]	IC50 [2]
BODIPY-labeled pICln (natural protein, UniProt P54105 1-237, looked up, BODIPY (labeled by BODIPY-maleimide; site not stated), pICln, PRMT5 substrate adaptor with a PBM peptide in its C-terminal region; also called BODIPY-pICln; source: LBSTR Escherichia coli (Kerafast, EC1002), purified) MSFLKSFPPPGPAEGLLRQQPDTEAVLNGKGLGTGTLYIAESRLSWLDGSGLGFSLEYPTISLHALSRDRSDCLGEHLYVMVNAKFEEESKEPVADEEEEDSDDDVEPITEFRFVPSDKSALEAMFTAMCECQALHPDPEDEDSDDYDGEEYDVEAHEQGQGDIPTFYTYEEGLSHLTAEGQATLERLEGMLSQSVSSQYNMAGVRTEDSIRDYEDGMEVDTTPTVAGQFEDADVDH	32.5 ± 3.8 nM	–
pICln (unlabeled) (natural protein, UniProt P54105 1-237, looked up, pICln, PRMT5 substrate adaptor with a PBM peptide in its C-terminal region; Used free in the displacement assay and as a member of the 6S complex in the cryo-EM sample; only the PBM peptide is seen in the map; also called pICIn; source: LBSTR Escherichia coli (Kerafast, EC1002), purified) MSFLKSFPPPGPAEGLLRQQPDTEAVLNGKGLGTGTLYIAESRLSWLDGSGLGFSLEYPTISLHALSRDRSDCLGEHLYVMVNAKFEEESKEPVADEEEEDSDDDVEPITEFRFVPSDKSALEAMFTAMCECQALHPDPEDEDSDDYDGEEYDVEAHEQGQGDIPTFYTYEEGLSHLTAEGQATLERLEGMLSQSVSSQYNMAGVRTEDSIRDYEDGMEVDTTPTVAGQFEDADVDH	–	69.5 ± 3.3 nM
